What all share (assay): cell-based or functional assay
In assay [1] the target is T1, factor XIIIa (human, UniProt P00488 39-732).
T1 sequence (looked up): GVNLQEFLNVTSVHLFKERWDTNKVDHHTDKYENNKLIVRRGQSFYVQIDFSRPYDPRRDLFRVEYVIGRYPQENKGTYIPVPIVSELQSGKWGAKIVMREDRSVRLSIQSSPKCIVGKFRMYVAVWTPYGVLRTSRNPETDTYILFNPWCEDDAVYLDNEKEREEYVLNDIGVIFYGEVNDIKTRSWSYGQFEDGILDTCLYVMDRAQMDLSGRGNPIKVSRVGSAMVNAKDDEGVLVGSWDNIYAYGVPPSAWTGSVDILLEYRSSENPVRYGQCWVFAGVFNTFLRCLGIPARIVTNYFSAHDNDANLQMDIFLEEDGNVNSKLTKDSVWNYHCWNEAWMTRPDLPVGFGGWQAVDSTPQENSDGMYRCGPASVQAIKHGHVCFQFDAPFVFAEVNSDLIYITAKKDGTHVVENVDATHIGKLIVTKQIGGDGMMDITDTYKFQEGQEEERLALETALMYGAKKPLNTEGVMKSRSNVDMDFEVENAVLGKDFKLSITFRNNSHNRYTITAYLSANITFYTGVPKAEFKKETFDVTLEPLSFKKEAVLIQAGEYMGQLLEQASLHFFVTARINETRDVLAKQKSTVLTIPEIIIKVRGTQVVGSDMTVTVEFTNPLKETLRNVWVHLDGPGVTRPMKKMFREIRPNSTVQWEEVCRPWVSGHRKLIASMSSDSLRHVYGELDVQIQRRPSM

The target in assay [2] is T1, factor XIIIa. The source holds these as a separate data set.
The target in assay [3] is T1, factor XIIIa. This is another data set of the same source.

Positions count from the first letter of the chain named. Numbers in names are those of the source.

B1: modified tridegin L24A (protein, not shown: small tags and cut ends)
chain: MKLLPCKEWHQGIPNPRCWCGADAECAQDQYCAFIPQCRPRSELIKPMDDIYQRPVEFPNLPLKPREE
For the molecule B1, the Relative inhibitory effect (%) at 5.45 µM, wild type = 100% with factor XIIIa [1] is 92%.

B2: modified tridegin Y31A (protein, not shown: small tags and cut ends)
chain: B1 chain with A24L, Y31A
In turn, B2 came in with a Relative inhibitory effect (%) at 5.45 µM, wild type = 100% in the assay with factor XIIIa [1] of 69%.
For Ac-IKPMDDIYQRPVEFPNLPLK-NH2 [20 amino acid-long tridegin peptide SEQ ID NO.24], the “IC50, Berichrom assay, HPLC-purified peptide” value (“IC50, Berichrom assay” below) with factor XIIIa [2] stood at 7 µM. Moreover, the “Relative inhibitory effect (%) at 7.27 µM, recombinant tridegin = 100%” value with factor XIIIa [3] is 43.5%.
With DDIYQRPVEFPNLP [DDIYQRPVEFPNLP (SEQ ID No. 88) (14mer)], the “IC50, Berichrom test, purified peptide” value in the assay with factor XIIIa [2] was about 280 µM.
Turning to MDDIYQRPVEFPNLPL [MDDIYQRPVEFPNLPL (SEQ ID No. 87) (16mer)], the “IC50, Berichrom test, purified peptide” value with factor XIIIa [2] stood at 19 µM.
Turning to Ac-DDIYQRPVEFPNLPLKPREE-NH2 [20 amino acid-long tridegin peptide SEQ ID NO.26], the “IC50, Berichrom assay” value with factor XIIIa [2] turned out to be 5 µM. Besides, the “Relative inhibitory effect (%) at 7.27 µM, recombinant tridegin = 100%” value in the assay with factor XIIIa [3] stood at 35.6%.
On to Ac-PMDDIYQRPVEFPNLPLKPR-NH2 [20 amino acid-long tridegin peptide SEQ ID NO.25], for which the “IC50, Berichrom assay” value with factor XIIIa [2] is 4 µM. In the assay with factor XIIIa [3], the “Relative inhibitory effect (%) at 7.27 µM, recombinant tridegin = 100%” value came to 42.1%.

Source of the values: patent publication US20060246046A1 (published 2006).
